System: K4 kissing-loop RNA reporter
Experiment: apparent KD of K4 kissing-loop reporter; higher = weaker reporter binding
Conditions: Eterna round: R107
Protocol: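 RNA-MaP round R107: designed RNA switches with theophylline, tryptophan, arginine or FMN aptamers are transcribed on-chip within common flanks. They are titrated with a labelled K4 kissing-loop RNA reporter in RNA-MaP buffer (100 mM Tris pH 7.5, 80 mM KCl, 4 mM MgCl2), without ligand or with the indicated ligand. Median apparent KD per design.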

[1] = input ligand: theophylline 20 uM
[2] = input ligand: tryptophan 2.4 mM
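Note: bound reporter read as fluorescence of individual clusters on recovered sequencing chips by microscopy, with normalized cluster intensities fitted with a binding model.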

Row | Sequence | apparent KD of K4 kissing-loop reporter (input ligand: FMN 200 uM) [nM] | apparent KD of K4 kissing-loop reporter (input ligand: arginine 13.2 mM) [nM] | apparent KD of K4 kissing-loop reporter (input ligand: none) [nM] | apparent KD of K4 kissing-loop reporter [1] [nM] | apparent KD of K4 kissing-loop reporter [2] [nM]
1 | GCCGUAGAUUGAAGGAGCGCUAGUAGUGAUGUUGCUUGCACUUCUUGUGUAAGAAGAACCUAGCAGGUAGGUCGCAAUCUACGGC | 700 | 270 | 728 | 703 | 499
2 | GCCGUAGAUUGAAGGAGCGUGGAACUAUGGCUUGAACAGUGAUGUUGUUUAUCUAGGUAGCCGCAGGUAGGUCGCAAUCUACGGC | 263 | 250 | 270 | 239 | 229
3 | GCCGUAGUUGGAAGGAGCGUGAAUGGCCUCUAUCCAAAGUGAUGUUUUGUUGAAGACUGUUCACAGGUAGGUCGCCAACUACGGC [#09 K4 Arginine B Same State] | 145 | 130 | 133 | 134 | 132
4 | GCGAUUCAGUGAUGUUGGAAAUACAGGGAUACCAGCCGAGAAUAAGGCCCUUGGCAGCUUAAUAGGAAAGAACUAAGUAAGACGC [Theophylline A Same State; Euphoria Solution 2] | 574 | 569 | 877 | 616 | 402
5 | GCGCGGCUCAGUGAUGUUGAGCCUCGGAAACGAGGACCGGUACGGCCGCCACUCGUCCGCGCAGCUGAGGCAAAAGCCUCGGCUA [Omei KL Tryp A SS B v2] | 468 | 310 | 484 | 480 | 273
6 | GCGCGUCAUGUCAGCGGUGACACUGUCGAUACCAGCGCCGGAAGGCGCCCUUGGCAGCGACGUGCUGGAGUGAUGUUCCAGCGUG [#2 Exclusion - Theophylline A Attempt #26 (HarryS)] | 197 | 158 | 178 | 206 | 157
7 | GCGCGUCAUGUCAGCGGUGACUUUGUCGAUACCAGCGCCGCAAGGCGCCCUUGGCAGCGACGCGCUGGAGUGAUGUUCCAGCGUG [#2 Exclusion - Theophylline A Attempt #12 (HarryS)] | 135 | 126 | 134 | 154 | 126
8 | GCGGGCCCUGGAGGAUAUGAGUCGAGUGAUGUUCGGCGGUCCAUGCCGAUGCGGCGUUAUGCCCUUUUAGAAGGCCAGGGUCCGC [#2 Exclusion - FMN B Attempt #8 (HarryS)] | 543 | 234 | 283 | 302 | 289
9 | GCUAAGGAGUGAUGUUCCAAGUGAUGUUAACGAGGACCGGUACGGCCGCCACUCGAUACGGCCGGAAAGUAAGAUAAACUACAGC [Same State - Tryptophan A (Freestyle 5)] | 98.6 | 72.6 | 93.2 | 89.3 | 82.8
10 | GCUAUGGUAGGAAGGAGCGCGGACGGUAUUUGUCGAGUGAUGUUCGAUUCUUUAAUUUGAACGCAGGUAGGUCGCCUACUAUAGC [Arginine B K4 30] | 214 | 183 | 226 | 258 | 221
11 | GCUAUGGUAGGAAGGAGCGCUUACUCGGUAAUAAGAGUGAUGUUCGAUACCGAGUAUUUAUAGCAGGUAGGUCGCCUACUAUAGC [Arginine B K4 5] | 238 | 209 | 195 | 253 | 227
12 | GCUGAGGAGUGAUGUUCCAAGUGAUGUUAACGAGGACCGGUACGGCCGCCACUCGAUACGGCCGGACCGUAAGAUAAACUACAGC [Same State - Tryptophan A (Freestyle 7)] | 316 | 281 | 288 | 409 | 315
13 | GGAAAUUGAUCAACGCAGUGAUGUUGCGAUACCAGACACAAAGCCGUCCCUUGGCAGCGCGGGACAUUAAUGGAUCUAUGGGUUC [theeternabot_exclusion_KL_Theo_A_26] | 68.5 | 113 | 68.2 | 119 | 66.8
14 | GGACCACCAGUGAUGUUGGAGAUAAACUCCAAGGAUAUGACGAAAGUCAGAAGGUGGUAAUAAGACGUCAAAGACGUCAGGUCCA [FmnA 20 #SwitchBubble #K4Early] | 372 | 116 | 187 | 209 | 178
15 | GGAGUUACCUGGGAUACCAGUCGGAGUCCCAGAGCUCAGAGUGAUGUUCUGGGAUGUUUCGGCCCUUGGCAGCUCUGGGACUCCC [#2 Exclusion - Theophylline B Attempt #12 (HarryS)] | 535 | 509 | 637 | 599 | 466
16 | GGAGUUACCUGGGAUACCAGUCGGAGUCUCAGAGCUCGGAGUGAUGUUCUGGGAUGUUUCGGCCCUUGGCAGCUCUGGGACUCCA [#2 Exclusion - Theophylline B Attempt #16 (HarryS)] | 924 | 627 | 863 | 843 | 707
